Measured values as given in PMC12176258, “Stabilization of the catalytically active structure of a molybdenum‐dependent formate dehydrogenase depends on a highly conserved lysine residue” (The Febs Journal, 2025).

Experiments:
purified protein [1] = substrate: O=CO; experiment: purified protein; conditions: 2 mM BV2+ fixed, formate 0.125-200 mM, 50 mM phosphate pH 7.5, 25 °C, anaerobic
purified protein [2] = substrate: c1ccc(C[n+]2ccc(-c3cc[n+](Cc4ccccc4)cc3)cc2)cc1; experiment: purified protein; type: biochemical, Escherichia coli; conditions: 10 mM formate fixed, BV2+ 0.125-20 mM, 50 mM phosphate pH 7.5, 25 °C, anaerobic, artificial electron acceptor

B1: EcFDH-H (Escherichia coli formate dehydrogenase H) (Escherichia coli K-12) (protein)
chain: MKKVVTVCPYCASGCKINLVVDNGKIVRAEAAQGKTNQGTLCLKGYYGWDFINDTQILTPRLKTPMIRRQRGGKLEPVSWDEALNYVAERLSAIKEKYGPDAIQTTGSSRGTGNETNYVMQKFARAVIGTNNVDCCARVUHGPSVAGLHQSVGNGAMSNAINEIDNTDLVFVFGYNPADSHPIVANHVINAKRNGAKIIVCDPRKIETARIADMHIALKNGSNIALLNAMGHVIIEENLYDKAFVASRTEGFEEYRKIVEGYTPESVEDITGVSASEIRQAARMYAQAKSAAILWGMGVTQFYQGVETVRSLTSLAMLTGNLGKPHAGVNPVRGQNNVQGACDMGALPDTYPGYQYVKDPANREKFAKAWGVESLPAHTGYRISELPHRAAHGEVRAAYIMGEDPLQTDAELSAVRKAFEDLELVIVQDIFMTKTASAADVILPSTSWGEHEGVFTAADRGFQRFFKAVEPKWDLKTDWQIISEIATRMGYPMHYNNTQEIWDELRHLCPDFYGATYEKMGELGFIQWPCRDTSDADQGTSYLFKEKFDTPNGLAQFFTCDWVAPIDKLTDEYPMVLSTVREVGHYSCRSMTGNCAALAALADEPGYAQINTEDAKRLGIEDEALVWVHSRKGKIITRAQVSDRPNKGAIYMTYQWWIGACNELVTENLSPITKTPEYKYCAVRVEPIADQRAAEQYVIDEYNKLKTRLREAALA
notes: full-length selenocysteine-containing enzyme, C-terminal His6-tag, from pTrc99a-fdhF in E. coli JG-X (MC4100 delta-fdhF delta-iscR) with helper pSU21-selC; holds Mo(MGD)2 and one [4Fe-4S] cluster
- Km (purified protein [1]): 1850 ± 270 µM
- Km (purified protein [2]): 2750 ± 500 µM

B2: EcFDH-H (Escherichia coli formate dehydrogenase H) (Escherichia coli K-12; K44R) (protein)
chain: MKKVVTVCPYCASGCKINLVVDNGKIVRAEAAQGKTNQGTLCLRGYYGWDFINDTQILTPRLKTPMIRRQRGGKLEPVSWDEALNYVAERLSAIKEKYGPDAIQTTGSSRGTGNETNYVMQKFARAVIGTNNVDCCARVUHGPSVAGLHQSVGNGAMSNAINEIDNTDLVFVFGYNPADSHPIVANHVINAKRNGAKIIVCDPRKIETARIADMHIALKNGSNIALLNAMGHVIIEENLYDKAFVASRTEGFEEYRKIVEGYTPESVEDITGVSASEIRQAARMYAQAKSAAILWGMGVTQFYQGVETVRSLTSLAMLTGNLGKPHAGVNPVRGQNNVQGACDMGALPDTYPGYQYVKDPANREKFAKAWGVESLPAHTGYRISELPHRAAHGEVRAAYIMGEDPLQTDAELSAVRKAFEDLELVIVQDIFMTKTASAADVILPSTSWGEHEGVFTAADRGFQRFFKAVEPKWDLKTDWQIISEIATRMGYPMHYNNTQEIWDELRHLCPDFYGATYEKMGELGFIQWPCRDTSDADQGTSYLFKEKFDTPNGLAQFFTCDWVAPIDKLTDEYPMVLSTVREVGHYSCRSMTGNCAALAALADEPGYAQINTEDAKRLGIEDEALVWVHSRKGKIITRAQVSDRPNKGAIYMTYQWWIGACNELVTENLSPITKTPEYKYCAVRVEPIADQRAAEQYVIDEYNKLKTRLREAALA
notes: as for B1
- Km (purified protein [1]): 58610 ± 6150 µM
- Km (purified protein [2]): 2210 ± 370 µM
